Reference: paper PMC10400905

Biological target: C4BPα1–2 (His6-tagged fragment of human C4b-binding protein) (human)
Assay: ITC; 23 °C, PBS; 300 to 500 μM intact M2 or M2G in the syringe, 30 to 50 μM C4BPα1–2 in the cell; single-site model

Substance	Kd [µM]	dH [kcal/mol]	stoichiometry N
intact M2 protein (Streptococcus pyogenes, strain AP2) (natural protein)	4	-24	0.5
M2G (M2_(53)G; M2 aa 53–86 fused to GCN4)	4	-27	0.51
